For one data set, the target named is Ape1WT (Homo sapiens, UniProt P27695 1-318). In words: SPR. (In general: Surface plasmon resonance follows binding to a sensor surface in real time, without labels.)
Another data set concerns the target NPM1 (UniProt P06748 1-294). Briefly: SPR.

As a reminder, the Kd is the constant that tells how readily two partners part at equilibrium. A higher Kd goes with weaker binding.

Chain of Ape1WT (P27695 whole entry): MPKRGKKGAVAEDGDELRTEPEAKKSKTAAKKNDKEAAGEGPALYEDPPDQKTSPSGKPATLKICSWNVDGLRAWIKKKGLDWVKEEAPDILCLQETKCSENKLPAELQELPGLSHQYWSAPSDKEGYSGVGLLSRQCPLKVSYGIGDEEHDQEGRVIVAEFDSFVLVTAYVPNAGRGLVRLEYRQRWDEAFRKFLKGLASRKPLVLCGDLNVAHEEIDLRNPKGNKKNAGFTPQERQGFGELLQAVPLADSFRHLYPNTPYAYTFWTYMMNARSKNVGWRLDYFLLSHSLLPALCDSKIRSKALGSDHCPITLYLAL
Chain of NPM1 (P06748 whole entry): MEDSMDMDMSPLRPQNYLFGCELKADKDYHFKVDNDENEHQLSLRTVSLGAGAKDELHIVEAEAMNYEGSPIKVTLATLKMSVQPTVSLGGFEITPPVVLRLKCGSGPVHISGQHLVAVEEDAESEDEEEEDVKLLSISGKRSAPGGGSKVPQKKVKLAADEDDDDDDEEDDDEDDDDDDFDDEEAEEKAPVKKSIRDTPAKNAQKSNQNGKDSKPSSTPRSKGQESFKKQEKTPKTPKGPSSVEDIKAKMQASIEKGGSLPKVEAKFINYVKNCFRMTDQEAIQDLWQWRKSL

In the case of TAGGGTTAGGGTTAGGGTTAGGG (structured_DNA) [Biot-Nat], the results for the Kd with Ape1WT and with NPM1 were 31.6 nM and 147 nM, respectively.

Turning to TTTTTTTTTTTTTTTTTTTTTTT (ssDNA) [Biot-Poly dT], the Kd amounted to 170 nM with Ape1WT and 255 nM with NPM1.

These data come from paper PMC6420783.
